Data reported in PMC9603474, “Genome-Wide Identification of DOF Gene Family and the Mechanism Dissection of SbDof21 Regulating Starch Biosynthesis in Sorghum”.

Target: T1, SbDOF21 (Sorghum bicolor cv. BTx623, UniProt C5Y2M8 1-340)
T1 sequence: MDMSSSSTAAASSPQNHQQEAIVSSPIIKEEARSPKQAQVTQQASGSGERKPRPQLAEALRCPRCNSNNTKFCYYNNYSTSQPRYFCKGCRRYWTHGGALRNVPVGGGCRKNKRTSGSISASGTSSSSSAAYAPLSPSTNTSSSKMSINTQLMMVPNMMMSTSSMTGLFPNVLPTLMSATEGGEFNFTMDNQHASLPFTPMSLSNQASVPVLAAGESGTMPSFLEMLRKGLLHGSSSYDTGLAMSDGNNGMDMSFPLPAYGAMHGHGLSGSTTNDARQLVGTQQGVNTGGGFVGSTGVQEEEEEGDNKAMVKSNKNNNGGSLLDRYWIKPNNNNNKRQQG
Assay: EMSA; 20-fold unlabeled probe partly reduced the shift; Chemiluminescent EMSA Kit (Beyotime) per instructions; buffer, salt, pH and temperature not stated
Settings: protein: recombinant; tags: His (pET32a, N-terminal vector fusion); blunt

B1: 4x P-Box (dsDNA)
DNA 1: TGTAAAGTGTAAAGTGTAAAGTGTAAAG
DNA 2: CTTTACACTTTACACTTTACACTTTACA
B1: binds.
